Changes are numbered by the printed parent chain.

For experiment [1], the target named is Human IL-23 (heterodimer of p19 and p40 subunits) (human) (UniProt P29460). As to the kind of experiment: cell-based or functional assay.
The target is the same in experiment [2]. As to the kind of experiment: BIAcore SPR, antibody captured on protein A, human IL-23 flowed, HBS-EP pH 7.4, 25 C.
Experiment [3] concerns the target T1, Human IL-23 (heterodimer of p19 and p40 subunits) (human, UniProt P29460 23-328).
T1 sequence 1: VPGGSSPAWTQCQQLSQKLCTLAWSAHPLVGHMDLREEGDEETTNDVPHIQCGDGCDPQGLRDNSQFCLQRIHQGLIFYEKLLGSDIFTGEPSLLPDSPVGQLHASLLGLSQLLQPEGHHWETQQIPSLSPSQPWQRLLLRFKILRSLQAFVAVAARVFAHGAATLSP
T1 sequence 2: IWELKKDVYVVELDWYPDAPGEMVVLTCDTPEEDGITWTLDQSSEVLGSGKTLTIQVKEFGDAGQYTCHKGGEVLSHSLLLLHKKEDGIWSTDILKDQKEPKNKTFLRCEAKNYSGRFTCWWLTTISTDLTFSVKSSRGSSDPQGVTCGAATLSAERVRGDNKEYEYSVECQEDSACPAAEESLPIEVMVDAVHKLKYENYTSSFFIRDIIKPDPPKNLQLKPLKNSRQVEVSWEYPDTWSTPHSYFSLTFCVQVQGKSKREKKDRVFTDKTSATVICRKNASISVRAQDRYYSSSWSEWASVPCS
The experiment in a line: cell-based or functional assay.

The target of experiment [4] is T1, Human IL-23 (heterodimer of p19 and p40 …). As to the kind of experiment: BIAcore SPR, antibody captured on protein A, human IL-23 flowed, HBS-EP pH 7.4, 25 C. As to the method:
Affinities of MAb3A8 and antibodies of the present invention are determined using BIAcore measurements (Table 3). BIAcore™ is an automated biosensor system that measures molecular interactions. (Karlsson, et al. (1991) J. Immunol. Methods 145: 229-240). In these experiments antibody is captured to a surface at low density on a BIAcore™ chip. Ethyl-dimethylaminopropyl-carbodiimide (EDC) is used to couple reactive amino groups to protein A to a flow cell of a carboxy-methyl (CM5) BIAcore™ sensor chip. Protein A is diluted in sodium acetate buffer, pH 4.5, and immobilized on a flow cell of a CM5 chip using EDC to yield 1000 response units. Unreacted sites are blocked with ethanolamine. A flow rate of 60 μl/min is used. Multiple binding/elution cycles are performed by injection a 10 μl solution of 2 μg/mL of the antibodies of the present invention. followed by human IL-23 at decreasing concentrations for each cycle (e.g. 1500, 750, 375, 188, 94, 47, 23.5, 12, and 0 picomolar). Elution is performed with glycine-HCl, pH 1.5. BIAevaluation™ is used to analyze the kinetic data.

As to “MAB1290, anti-human IL-23 monoclonal antibody, murine (R&D Systems)”, in experiment [1], the IC50 Measured in the Murine Splenocyte Assay turned out to be 2.8 nM. Moreover, in experiment [2], the dissociation constant (Kd) – broadly, the concentration at which binding is half-saturated – is 21.4 nM; the koff – broadly, a measure of how fast the partners let go of each other – was 0.000768 s⁻¹; the association rate constant (kon) – broadly, the rate constant with which the complex forms – turned out to be 36800 M⁻¹ s⁻¹.

B1: MAbQF20 (antibody, human IgG1, kappa, V domains shown)
VH: QVQLVQSGAEVKKPGASVKVSCKVSGKTFWSYGINWVRQAPGKGLEWMGYIYIGTGYTEPNPKYKGRVTMTEDTSTDTAYMELSSLRSEDTAVYYCATIGGYYGNFADWGQGTTVTVSS
VL: DVVMTQSPLSLPVTLGQPASISCRSSQSLLISGGKTYLNWFQQRPGQSPRRLIYLVSKLDQGVPDRFSGSGSGTDFTLKISRVEAEDVGVYYCWQGTYFPLTFGQGTKLEIKR
notes: Humanized antibody derived from MAb3A8
On to B1, for which the “IC50 Measured in the Murine Splenocyte Assay” value in experiment [3] was determined as 0.002 nM. Further, in experiment [4], binding was put at a Kd of 0.074 nM, the koff came out at 0.000115 s⁻¹ and the kon was determined as 1.55e+06 M⁻¹ s⁻¹.

B2: MAbQF37 (antibody, human IgG1, kappa, V domains shown)
VH: B1 VH with A107D, D108Q
VL: B1 VL
notes: as for B1
B2: in experiment [3], the “IC50 Measured in the Murine Splenocyte Assay” value was 0.002 nM. Also, in experiment [4], the Kd came to 0.098 nM, the koff stood at 0.000153 s⁻¹ and the on-rate (kon) turned out to be 1.55e+06 M⁻¹ s⁻¹.

The values are drawn from patent US20090240036A1 (Eli Lilly, published 2009).
